Test results from patent US20240165140A1, “MEDICATION FOR INHIBITING DNA-PKCS” (TSINGHUA UNIVERSITY, priority 2017, published 2024).

Assays:
[1] = test system: DNA-PKcs signaling pathway; test: Immunoblotting of DNA-PKcs signaling pathway activation induced by chemotherapeutic agent; assay type: cell-based; details: H1299 and A549 cells; single agent 1 h (Etoposide 10 μM, Endostatin 10 μg/ml, NU7026 10 μM); compared with control group
Text: Tumor cells (including non-small cell lung cancer H1299 and A549 cells) were divided into six treatment groups.
Tumor cells (including H1299 and A549 cells) were divided into six treatment groups.

H1299 and A549 cells = test: Annexin V-FITC/PI apoptosis by flow cytometry with DNA-PKcs siRNA knockdown; assay type: cell-based; details: Endostatin 10 μg/ml added 1 h before Etoposide (10 μM for H1299, 1 μM for A549, 16 h)
Description: In this example, tumor cells (including H1299 and A549 cells) were divided into eight treatment groups. In the first four groups, cells were transfected with control siRNA, and in the last four groups, cells were transfected with siRNA that specifically knocked down DNA-PKcs. The siRNA sequence of DNA-PKcs is: forward 5′-[…]-3′ (SEQ ID NO: 5), reverse 5′-[…]-3′ (SEQ ID NO: 6). The siRNA transfection method was performed according to the instructions of the transfection reagent Lipofectamine 2000. Then, in the eight groups, the cells were treated with drugs. […] Cells were collected and operations were performed according to the instructions of Annexin V-FITC/PI Apoptosis Detection Kit. Apoptosis was detected by flow cytometry. A549 cells were P53 wild-type cells, and H1299 cells were P53-deficient cells.

[2] = test system: P53-deficient tumor cells (H1299-NC and A549-shP53); test: CCK8 cell activity, P53-deficient tumor cells; assay type: cell-based
Description: (§1) First, a lentivirus kit (purchased from Shanghai Genepharma) was used to construct a P53 stably overexpressing H1299 cell line (H1299-P53) and a P53 stably knockdown A549 cell line […]. The P53 sequence targeted by the shRNA used to knock down P53 in A549 cells was 5′-[…]-3′ (SEQ ID NO: 4). Virus transfection and the construction of stable cell lines were performed according to the kit instructions. […] After treatment for 12 hours, the drug-containing medium was replaced with a normal medium and the cells were further cultured for 72 hours. Cell activity was measured according to the instructions of the CCK8 kit (Dojindo, Tokyo, Japan).
In this example, another chemical drug, Doxorubicin, was used to verify that Endostatin can enhance the sensitivity of P53-deficient tumor cells to chemotherapy. Operation process was the same as in Example 5.

[3] = test system: P53-deficient tumor cells (H1299-NC, A549-shP53); test: Cell colony formation, P53-deficient tumor cells; assay type: cell-based; details: Endostatin 10 μg/ml added 1 h before Etoposide 1 μM, 16 h; colonies after 14 days
Description: (§2) After the treatment, the cells were digested with trypsin, counted, and re-plated in a six-well plate with 1000 cells per well. The cells were cultured in a normal medium for 14 days to form cell colonies.

[4] = test system: tumor cells with normal P53 function (H1299-P53, A549-NC); test: Cell colony formation, tumor cells with normal P53 function; assay type: cell-based; details: Endostatin 10 μg/ml added 1 h before Etoposide 1 μM, 16 h
Description: as §2

MDA-MB-435S cells = test: CCK8 cell activity, melanoma MDA-MB-435S; assay type: cell-based; details: MDA-MB-435S (P53 mutant); operation process as in Example 5
Description: as §1
(§3) This example used two cell lines of another tumor type (melanoma), the MDA-MB-435S (P53 mutant) and A375 (P53 wild type) cell lines, to verify the regulatory function of Endostatin on the chemotherapeutic sensitivity of other types of tumor cells with different P53 status. Operation process was the same as in Example 5.

A375 cells = test: CCK8 cell activity, melanoma A375; assay type: cell-based; details: A375 (P53 wild type); operation process as in Example 5
Description: as §1, §3

[5] = test system: mRNA levels of BAX, NOXA, PUMA, and P21; test: Real-time PCR of pro-apoptotic molecules, P53-deficient tumor cells; assay type: cell-based; details: H1299-NC, A549-shP53; Endostatin 10 μg/ml added 1 h before Etoposide 1 μM, 16 h
Description: (§4) After the cells were treated as described above, the total RNA of the cells was extracted, and the relative changes in mRNA levels of BAX, NOXA, PUMA, and P21 in the cells were detected by real-time PCR.

[6] = test system: mRNA levels of BAX, NOXA, PUMA, and P21; test: Real-time PCR of pro-apoptotic molecules, tumor cells with normal P53 function; assay type: cell-based; details: H1299-P53, A549-NC; Endostatin 10 μg/ml added 1 h before Etoposide 1 μM, 16 h
Description: as §4

A549-shP53 tumor = test: Subcutaneous tumor growth in nude mice, A549-shP53; assay type: in vivo; details: A549-shP53, Day 27; compared with control group; Endostatin 20 mg/kg i.p. once a day, Etoposide 2 mg/kg i.p. once every two days
Description: (§5) Tumor-bearing nude mice were randomly divided into four groups with 6 to 8 animals for each group, and different drug treatments were performed. […] Tumor volume was measured every other day. 2 to 4 weeks after administration, the mice were sacrificed and the tumor tissue was removed for further use.

H1299-P53 tumor = test: Subcutaneous tumor growth in nude mice, H1299-P53; assay type: in vivo
Description: as §5

A549-NC tumor = test: Subcutaneous tumor growth in nude mice, A549-NC; assay type: in vivo
Description: as §5

H1299 mouse tumor model = test: Survival of H1299 tumor-bearing mice; assay type: in vivo; details: administration as in Example 12, stopped after 25 days
Description: as §5
(§6) H1299 and A549 cells were cultured in a vigorous and proliferative state, and tumor collection, grouping, and administration methods were the same as in Example 12. The administration was stopped after 25 days, and the survival of the mice was recorded daily, and the survival curve of the mice was plotted.

[7] = test system: A549 tumor-bearing mice (normal P53 function); test: Survival of A549 tumor-bearing mice; assay type: in vivo; details: A549, normal P53 function (FIG. 13B); compared with control group; administration as in Example 12, stopped after 25 days
Description: as §5, §6

[8] = test system: DNA-PKcs, PARP, γH2AX and Caspase-3 signaling pathways; test: Immunoblotting of DNA damage and apoptotic pathway, tumor cells with normal P53 function; details: H1299-P53, A549-NC; Endostatin 10 μg/ml, Etoposide 10 μM 16 h, z-DEVD-fmk 10 μM; Endostatin and z-DEVD-fmk added 1 h before Etoposide
Description: In this example, tumor cells (H1299-NC, H1299-P53, A549-NC, A549-shP53) were divided into six treatment groups.

B1: Endostatin: recombinant natural human endostatin expressed by E. coli, from Protgen, SEQ ID NO: 2 (protein)
chain: MHSHRDFQPVLHLVALNSPLSGGMRGIRGADFQCFQQARAVGLAGTFRAFLSSRLQDLYSIVRRADRAAVPIVNLKDELLFPSWEALFSGSEGPLKPGARIFSFDGKDVLRHPTWPQKSVWHGSDPNGRRLTESYCETWRTEAPSATGQASSLLGGRLLGQSAASCHHAYIVLCIENSFMTASK
modifications: The amino acid sequence of natural human endostatin
Level of the DNA-PKcs signaling pathway (p-DNA-PKcs (S2056), p-AKT (S473), p-P53 (S15)) [1]: did not affect the level of the DNA-PKcs signaling pathway | Role of Endostatin in promoting apoptosis induced by Etoposide after knocking down DNA-PKcs (H1299 and A549 cells; DNA-PKcs siRNA): weakened | Etoposide-induced apoptosis (H1299 and A549 cells; control siRNA): would further promote Etoposide-induced apoptosis | Effect on toxicity of Etoposide to tumor cells (cell activity) ([2]; Endostatin 10 μg/ml pretreatment 1 h, Etoposide 0, 0.1, 1, 10 μM, 12 hours treatment, 72 hours further culture): could enhance the toxicity of Etoposide to tumor cells | Effect on toxicity of Doxorubicin to tumor cells (cell activity) ([2]; Operation process as in Example 5, Doxorubicin instead of Etoposide): could enhance the toxicity of Doxorubicin to tumor cells | Effect on inhibition of tumor cell colony-forming ability by Etoposide [3]: could enhance the inhibitory effect of Etoposide on tumor cell colony-forming ability | Effect on inhibition of colony-forming ability by Etoposide [4]: did not significantly enhance theinhibitory effect of Etoposide | Effect on toxicity of Etoposide to tumor cells (cell activity) (MDA-MB-435S cells): could enhance the toxicity of Etoposide to tumor cells | Effect on the inhibitory effect of Etoposide on cell activity (A375 cells): did not significantly enhance the inhibitory effect of Etoposide | Effect on up-regulation of pro-apoptotic molecules by Etoposide (mRNA) [5]: could enhance Etoposide to up-regulate pro-apoptotic molecules | Effect on the pro-apoptotic effect of Etoposide (mRNA of pro-apoptotic molecules) [6]: did not significantly enhance the pro-apoptotic effect of Etoposide | tumor suppression rate (A549-shP53 tumor): 37.1% | tumor suppression rate (H1299-P53 tumor; H1299-P53, Day 19, compared with control group, Endostatin 20 mg/kg i.p. once a day, Etoposide 2 mg/kg i.p. once every two days): 33.8% | Effect on the inhibitory effect of Etoposide on tumor growth (H1299-P53 tumor; H1299-P53, Endostatin 20 mg/kg i.p. once a day and Etoposide 2 mg/kg i.p. once every two days): could not enhance the inhibitory effect of Etoposide on tumor growth | tumor suppression rate (A549-NC tumor; Day 27, compared with control group, Endostatin 20 mg/kg i.p. once a day, Etoposide 2 mg/kg i.p. once every two days): 40.9% | Effect on the inhibitory effect of Etoposide on tumor growth (A549-NC tumor; Endostatin 20 mg/kg i.p. once a day and Etoposide 2 mg/kg i.p. once every two days): could not enhance the inhibitory effect of Etoposide on tumor growth | median survival time longer than that of the control group (H1299 mouse tumor model): 24.2% | Survival time of mice [7]: could prolong the survival time of the mice to some extent | DNA-PKcs, PARP, γH2AX and Caspase-3 signaling pathway levels [8]: did not affect the above-mentioned signaling pathway levels
